# Data reported in patent US20020157122.
# Residue numbers refer to the chain shown, from its start.
# B1: BACE2 (endogenous, in cultured mouse astrocytes and neurons) (protein)
# chain: ALEPVRATANFLAMVDNLQGDSGRGYYLEMLIGTPPQKVQILVDTGSSNFAVAGAPHSYIDTYFDSESSSTYHSKGFDVTVKYTQGSWTGFVGEDLVTIPKGFNSSFLVNIATIFESENFFLPGIKWNGILGLAYAALAKPSSSLETFFDSLVAQAKIPDIFSMQMCGAGLPVAGSGTNGGSLVLGGIEPSLYKGDIWYTPIKEEWYYQIEILKLEIGGQNLNLDCREYNADKAIVDSGTTLLRLPQKVFDAVVEAVARTSLIPEFSDGFWTGAQLACWTNSETPWAYFPKISIYLRDENASRSFRITILPQLYIQPMMGAGFNYECYRFGISSSTNALVIGATVMEGFYVVFDRAQRRVGFAVSPCAEIEGTTVSEISGPFSTEDIASNCVPAQALNEPILWIVSYALMSVCGAILLVLILLLLLPLHCRHAPRDPEVVNDESSLVRHRWK
# B2: human BACE1 (full-length, expressed from recombinant adenovirus) (protein)
# chain: ETDEEPEEPGRRGSFVEMVDNLRGKSGQGYYVEMTVGSPPQTLNILVDTGSSNFAVGAAPHPFLHRYYQRQLSSTYRDLRKGVYVPYTQGKWEGELGTDLVSIPHGPNVTVRANIAAITESDKFFINGSNWEGILGLAYAEIARPDDSLEPFFDSLVKQTHVPNLFSLQLCGAGFPLNQSEVLASVGGSMIIGGIDHSLYTGSLWYTPIRREWYYEVIIVRVEINGQDLKMDCKEYNYDKSIVDSGTTNLRLPKKVFEAAVKSIKAASSTEKFPDGFWLGEQLVCWQAGTTPWNIFPVISLYLMGEVTNQSFRITILPQQYLRPVEDVATSQDDCYKFAISQSSTGTVMGAVIMEGFYVVFDRARKRIGFAVSACHVHDEFRTAAVEGPFVTLDMEDCGYNIPQTDESTLMTIAYVMAAICALFMLPLCLMVCQWRCLRCLRQQHDDFADDISLLK
# B3: mouse BACE1 (endogenous, beta-site APP-cleaving enzyme 1) (protein)
# chain: B2 chain with P6S, V162I, L165I, S180T, V182A, I340V, L393A, Q443H
# Legend:
# [1] = biological target: humanized APP bearing the Swedish variant (a murine APP in which the Aβ1-42 region corresponds to the human Aβ1-42), P12023
# [2] = biological target: hAPP717 (variant of humanized APP), P12023
# [3] = biological target: T1, humanized wild type APP (hAPPwt), P12023
# T1 chain: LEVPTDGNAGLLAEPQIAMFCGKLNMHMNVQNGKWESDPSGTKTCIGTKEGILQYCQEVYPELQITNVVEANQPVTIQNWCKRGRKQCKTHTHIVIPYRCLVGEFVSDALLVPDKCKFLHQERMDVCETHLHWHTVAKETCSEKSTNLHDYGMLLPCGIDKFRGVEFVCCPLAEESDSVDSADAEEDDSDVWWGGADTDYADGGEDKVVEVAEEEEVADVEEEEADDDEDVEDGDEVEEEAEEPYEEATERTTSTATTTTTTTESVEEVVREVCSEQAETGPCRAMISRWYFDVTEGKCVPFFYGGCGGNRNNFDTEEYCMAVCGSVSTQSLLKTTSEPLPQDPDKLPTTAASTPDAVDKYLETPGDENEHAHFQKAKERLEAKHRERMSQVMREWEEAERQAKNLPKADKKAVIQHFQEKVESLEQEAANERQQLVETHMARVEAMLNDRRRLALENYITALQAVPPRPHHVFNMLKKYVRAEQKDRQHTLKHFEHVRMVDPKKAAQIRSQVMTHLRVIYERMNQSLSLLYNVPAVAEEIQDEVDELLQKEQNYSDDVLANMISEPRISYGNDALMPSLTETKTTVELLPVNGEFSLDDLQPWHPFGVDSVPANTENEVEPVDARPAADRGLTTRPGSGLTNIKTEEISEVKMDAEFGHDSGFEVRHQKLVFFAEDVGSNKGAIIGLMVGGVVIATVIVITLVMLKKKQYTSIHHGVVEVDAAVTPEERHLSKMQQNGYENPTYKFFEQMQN
# [4] = biological target: T2, mouse APP (endogenous β-amyloid precursor protein), P12023
# T2 chain: T1 chain
protein,measurement,setting,value
B1,relative amount of Aβ 1-19 and Aβ 1-20 normalized to Aβ1-40 (ProteinChip array coated with 6E10),[1],BACE2 mediated cleavages (at +19 and +20 of Aβ) were much higher in cultured astrocytes as compared to neurons
B2,+11 derived β-CTF in neurons (immunoprecipitation with CT15),[2],when neurons co-expressing human BACE1 and hAPPwt or hAPPswe or hAPP717 there is secreted a peptide corresponding to the +11 derived β-CTF (+11-CTF) in addition to the +1 derived β-CTF
same,secretion of human Aβ11-40 (IP-MS of conditioned media with 4G8),[2],The human Aβ11-40 peptides are also secreted by primary neurons co expressing human BACE1 and hAPPswe or hAPP717
same,+11 derived β-CTF in neurons (immunoprecipitation with CT15),[1],when neurons co-expressing human BACE1 and hAPPwt or hAPPswe or hAPP717 there is secreted a peptide corresponding to the +11 derived β-CTF (+11-CTF) in addition to the +1 derived β-CTF
same,secretion of Aβ peptides into culture medium of BACE1 deficient astrocytes,[1],BACE1 deficient astrocytes co-infected with adenoviruses expressing both APPswe and BACE1 restored the ability to secrete Aβ peptides into culture medium
same,secretion of human Aβ11-40 (IP-MS of conditioned media with 4G8),[1],The human Aβ11-40 peptides are also secreted by primary neurons co expressing human BACE1 and hAPPswe or hAPP717
same,+11 derived β-CTF in neurons (immunoprecipitation with CT15),[3],when neurons co-expressing human BACE1 and hAPPwt or hAPPswe or hAPP717 there is secreted a peptide corresponding to the +11 derived β-CTF (+11-CTF) in addition to the +1 derived β-CTF
same,secretion of human Aβ11-40 (IP-MS of conditioned media with 4G8),[3],now revealed the secretion of human Aβ11-40 peptide in addition to the murine Aβ11-40 peptide from murine neurons co-expressing human BACE1 and hAPPwt
B3,Aβ1-40 and Aβ1-42 in conditioned media of astrocytes (Aβ ELISA),[1],"Aβ1-40 and Aβ1-42 were easily detected from BACE1+/+ and BACE1+/- astrocyte cultures by Aβ ELISA assay, but were not detectable from BACE1-/- cultures"
same,Aβ1-40 and Aβ1-42 in conditioned media of neurons (quantitative sandwich ELISA),[1],showed high levels of Aβ1-40 and Aβ1-42 while undetectable levels of Aβ1-40 and Aβ1-42 were observed from media of BACE1-/- cultures expressing APPswe
same,secretion of Aβ peptides (IP-MS of conditioned media with 4G8),[3],"the human and murine Aβ1-40 and Aβ1-42 were secreted, however, the human Aβ11-40 peptide was not secreted into culture media from murine primary neurons infected with adenovirus expressing hAPPwt"
same,secretion of Aβ peptides from primary cortical neurons (IP-MS of conditioned media with 4G8),[4],secretion of these Aβ species is abolished from BACE1-/- neurons except for the Aβ 17-40 (p3) fragment
